The assay deals with cardiac ryanodine receptor (RyR2) (rat (endogenous in neonatal ventricular cardiomyocytes)) (UniProt B0LPN4).
UniProt B0LPN4, sequence (B0LPN4 whole entry): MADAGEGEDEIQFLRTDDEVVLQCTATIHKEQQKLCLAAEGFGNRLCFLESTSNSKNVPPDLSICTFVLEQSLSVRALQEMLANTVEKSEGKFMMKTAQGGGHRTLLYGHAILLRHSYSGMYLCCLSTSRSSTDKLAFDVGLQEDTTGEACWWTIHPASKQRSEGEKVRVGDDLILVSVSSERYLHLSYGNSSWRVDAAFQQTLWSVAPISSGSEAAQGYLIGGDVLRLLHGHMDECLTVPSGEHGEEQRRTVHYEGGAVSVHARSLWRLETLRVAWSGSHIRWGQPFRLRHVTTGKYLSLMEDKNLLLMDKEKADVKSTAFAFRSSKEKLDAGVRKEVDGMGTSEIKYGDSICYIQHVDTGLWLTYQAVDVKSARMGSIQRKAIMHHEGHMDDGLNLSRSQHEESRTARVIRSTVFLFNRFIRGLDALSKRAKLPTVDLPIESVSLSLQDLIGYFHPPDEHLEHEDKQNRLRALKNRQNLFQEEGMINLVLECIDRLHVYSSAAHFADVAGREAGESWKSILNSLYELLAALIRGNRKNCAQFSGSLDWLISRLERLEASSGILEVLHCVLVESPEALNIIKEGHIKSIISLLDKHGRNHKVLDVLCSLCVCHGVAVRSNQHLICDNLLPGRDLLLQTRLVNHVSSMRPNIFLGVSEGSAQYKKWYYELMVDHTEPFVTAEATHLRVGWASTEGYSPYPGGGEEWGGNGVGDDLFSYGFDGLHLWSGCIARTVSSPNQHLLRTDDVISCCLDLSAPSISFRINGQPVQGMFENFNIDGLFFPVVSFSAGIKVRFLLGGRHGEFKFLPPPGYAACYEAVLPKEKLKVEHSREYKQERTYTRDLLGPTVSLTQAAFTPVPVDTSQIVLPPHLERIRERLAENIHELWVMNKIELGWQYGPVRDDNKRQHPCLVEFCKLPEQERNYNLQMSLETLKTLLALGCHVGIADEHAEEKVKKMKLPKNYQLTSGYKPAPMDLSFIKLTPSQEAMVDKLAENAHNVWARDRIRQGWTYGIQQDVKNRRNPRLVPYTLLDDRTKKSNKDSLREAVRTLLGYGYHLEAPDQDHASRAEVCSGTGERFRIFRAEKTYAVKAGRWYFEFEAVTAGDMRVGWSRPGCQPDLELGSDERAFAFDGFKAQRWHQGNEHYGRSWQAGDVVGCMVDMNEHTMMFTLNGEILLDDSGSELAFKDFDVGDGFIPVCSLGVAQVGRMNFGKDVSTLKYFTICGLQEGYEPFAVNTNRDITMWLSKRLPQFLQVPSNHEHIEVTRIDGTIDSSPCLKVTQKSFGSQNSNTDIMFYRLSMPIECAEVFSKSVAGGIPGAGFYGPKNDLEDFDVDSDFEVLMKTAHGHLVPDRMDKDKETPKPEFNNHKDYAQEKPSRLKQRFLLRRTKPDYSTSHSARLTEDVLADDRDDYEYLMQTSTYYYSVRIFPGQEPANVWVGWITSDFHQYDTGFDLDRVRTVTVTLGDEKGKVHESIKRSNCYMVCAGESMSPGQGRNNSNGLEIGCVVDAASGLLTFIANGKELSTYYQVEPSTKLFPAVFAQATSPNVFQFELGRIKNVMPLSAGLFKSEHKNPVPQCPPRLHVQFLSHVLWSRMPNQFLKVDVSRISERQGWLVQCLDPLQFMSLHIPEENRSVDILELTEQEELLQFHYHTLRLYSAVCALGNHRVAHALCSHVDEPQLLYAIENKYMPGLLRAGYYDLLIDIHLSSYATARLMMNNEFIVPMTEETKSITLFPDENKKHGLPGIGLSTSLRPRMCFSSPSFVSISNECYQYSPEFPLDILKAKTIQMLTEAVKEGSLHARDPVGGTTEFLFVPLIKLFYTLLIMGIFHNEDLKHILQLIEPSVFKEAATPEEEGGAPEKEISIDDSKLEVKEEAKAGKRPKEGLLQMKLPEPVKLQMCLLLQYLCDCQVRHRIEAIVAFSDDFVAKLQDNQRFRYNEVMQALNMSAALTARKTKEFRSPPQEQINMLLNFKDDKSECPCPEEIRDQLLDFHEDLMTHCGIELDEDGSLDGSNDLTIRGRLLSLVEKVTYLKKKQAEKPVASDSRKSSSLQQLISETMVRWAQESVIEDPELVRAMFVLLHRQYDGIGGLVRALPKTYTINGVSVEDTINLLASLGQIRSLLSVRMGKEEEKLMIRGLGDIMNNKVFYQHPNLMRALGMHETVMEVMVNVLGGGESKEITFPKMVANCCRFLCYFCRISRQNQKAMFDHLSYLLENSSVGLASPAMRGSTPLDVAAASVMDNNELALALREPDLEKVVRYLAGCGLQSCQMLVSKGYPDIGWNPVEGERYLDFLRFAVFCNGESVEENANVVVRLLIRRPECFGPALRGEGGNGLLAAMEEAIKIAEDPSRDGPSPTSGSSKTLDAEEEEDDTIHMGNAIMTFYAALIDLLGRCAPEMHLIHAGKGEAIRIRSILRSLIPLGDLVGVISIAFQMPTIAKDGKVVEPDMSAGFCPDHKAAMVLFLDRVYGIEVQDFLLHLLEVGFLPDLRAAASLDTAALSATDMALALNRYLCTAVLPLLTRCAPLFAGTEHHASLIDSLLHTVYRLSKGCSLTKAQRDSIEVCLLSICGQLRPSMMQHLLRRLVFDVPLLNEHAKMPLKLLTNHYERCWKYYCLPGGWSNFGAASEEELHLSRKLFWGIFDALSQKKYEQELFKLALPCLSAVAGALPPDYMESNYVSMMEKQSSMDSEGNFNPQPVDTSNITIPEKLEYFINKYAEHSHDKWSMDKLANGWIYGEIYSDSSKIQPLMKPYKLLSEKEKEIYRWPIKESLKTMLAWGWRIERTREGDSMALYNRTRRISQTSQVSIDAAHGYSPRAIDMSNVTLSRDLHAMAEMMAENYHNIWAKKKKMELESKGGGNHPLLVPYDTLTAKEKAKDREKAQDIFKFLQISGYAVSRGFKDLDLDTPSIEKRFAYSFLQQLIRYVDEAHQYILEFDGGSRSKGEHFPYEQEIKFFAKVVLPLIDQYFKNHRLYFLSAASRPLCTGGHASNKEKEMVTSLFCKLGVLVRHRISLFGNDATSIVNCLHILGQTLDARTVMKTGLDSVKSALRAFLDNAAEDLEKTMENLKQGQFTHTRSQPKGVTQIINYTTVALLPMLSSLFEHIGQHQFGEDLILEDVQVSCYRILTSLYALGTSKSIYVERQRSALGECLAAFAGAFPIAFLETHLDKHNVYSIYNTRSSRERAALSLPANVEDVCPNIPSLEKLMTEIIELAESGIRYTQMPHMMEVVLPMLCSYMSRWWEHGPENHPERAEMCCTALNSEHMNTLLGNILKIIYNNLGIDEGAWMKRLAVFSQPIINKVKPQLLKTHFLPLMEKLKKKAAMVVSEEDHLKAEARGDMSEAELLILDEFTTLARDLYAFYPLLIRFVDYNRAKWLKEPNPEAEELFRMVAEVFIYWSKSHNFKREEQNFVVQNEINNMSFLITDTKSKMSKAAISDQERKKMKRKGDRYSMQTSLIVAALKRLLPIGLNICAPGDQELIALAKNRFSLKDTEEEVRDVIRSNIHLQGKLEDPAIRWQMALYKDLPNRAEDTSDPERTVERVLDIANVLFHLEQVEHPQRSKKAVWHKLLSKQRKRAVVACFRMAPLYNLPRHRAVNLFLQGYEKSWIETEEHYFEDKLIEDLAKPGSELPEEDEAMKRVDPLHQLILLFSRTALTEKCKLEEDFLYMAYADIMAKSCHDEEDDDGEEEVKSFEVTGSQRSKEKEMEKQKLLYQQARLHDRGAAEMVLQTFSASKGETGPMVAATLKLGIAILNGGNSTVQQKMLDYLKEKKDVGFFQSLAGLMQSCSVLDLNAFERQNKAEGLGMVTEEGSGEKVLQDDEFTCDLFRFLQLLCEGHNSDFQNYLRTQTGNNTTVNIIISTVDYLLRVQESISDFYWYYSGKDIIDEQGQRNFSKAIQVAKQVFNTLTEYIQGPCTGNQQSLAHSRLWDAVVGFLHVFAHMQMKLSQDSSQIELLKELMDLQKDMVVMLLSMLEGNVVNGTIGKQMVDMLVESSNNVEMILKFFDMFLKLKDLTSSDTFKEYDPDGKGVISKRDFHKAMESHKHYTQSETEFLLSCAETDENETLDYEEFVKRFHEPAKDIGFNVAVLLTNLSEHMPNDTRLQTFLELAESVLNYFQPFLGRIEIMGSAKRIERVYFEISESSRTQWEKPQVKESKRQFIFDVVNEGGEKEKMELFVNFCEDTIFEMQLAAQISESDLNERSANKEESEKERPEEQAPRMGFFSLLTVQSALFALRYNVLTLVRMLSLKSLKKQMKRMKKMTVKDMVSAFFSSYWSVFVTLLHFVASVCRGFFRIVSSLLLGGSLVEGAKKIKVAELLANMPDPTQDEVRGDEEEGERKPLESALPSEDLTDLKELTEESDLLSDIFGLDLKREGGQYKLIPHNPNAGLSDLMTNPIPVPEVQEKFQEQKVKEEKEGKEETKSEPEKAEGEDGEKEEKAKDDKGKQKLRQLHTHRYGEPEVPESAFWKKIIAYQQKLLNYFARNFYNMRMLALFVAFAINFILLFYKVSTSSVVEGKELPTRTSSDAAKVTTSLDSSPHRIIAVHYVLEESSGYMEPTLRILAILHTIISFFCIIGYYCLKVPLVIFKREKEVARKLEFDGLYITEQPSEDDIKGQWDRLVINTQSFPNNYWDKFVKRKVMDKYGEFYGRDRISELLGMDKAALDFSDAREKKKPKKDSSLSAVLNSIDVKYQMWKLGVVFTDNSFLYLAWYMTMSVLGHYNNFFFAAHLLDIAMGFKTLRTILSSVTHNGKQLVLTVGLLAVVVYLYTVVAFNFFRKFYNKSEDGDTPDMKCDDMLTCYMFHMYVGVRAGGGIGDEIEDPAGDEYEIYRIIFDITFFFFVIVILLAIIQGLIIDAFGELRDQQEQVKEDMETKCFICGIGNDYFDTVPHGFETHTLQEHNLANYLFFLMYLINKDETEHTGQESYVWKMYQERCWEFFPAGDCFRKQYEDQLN

B1: C-terminal half of GSTM2 (GSTM2C) (domain or fragment)
chain: PMTLGYWNIRGLAHSIRLLLEYTDSSYEEKKYTMGDAPDYDRSQWLNEKFKLGLDFPNLPYLIDGTHKITQSNAILRYIARKHNLCGESEKEQIREDILENQFMDSRMQLAKLCYDPDFEKLKPEYLQALPEMLKLYSQFLGKQPWFLGDKITFVDFIAYDVLERNQVFEPSCLDAFPNLKDFISRFEGLEKISAYMKSSRFLPRPVFTKMAVWGNK
For B1, the field-stimulated myocyte shortening after 2 h with 5, 10 and 15 uM GSTM2C, as percent of control (3.0%, 10.9% and 42.8%); significant only at 15 uM is 42.8 % of control.

Values taken from paper PMC5017731.
